In patent US20210403565A1 (BIOATLA, published 2021) one finds EC50 data, which are given here for two molecules.

Substitutions are numbered along the chain they refer to.

Assay [1] deals with T1, human CTLA4 expressed on the cell surface of CHO cells (human, UniProt P16410 36-223).
T1 construct: whole, on cells; also called CHO-huCTLA4; huCTLA4
T1 sequence (looked up): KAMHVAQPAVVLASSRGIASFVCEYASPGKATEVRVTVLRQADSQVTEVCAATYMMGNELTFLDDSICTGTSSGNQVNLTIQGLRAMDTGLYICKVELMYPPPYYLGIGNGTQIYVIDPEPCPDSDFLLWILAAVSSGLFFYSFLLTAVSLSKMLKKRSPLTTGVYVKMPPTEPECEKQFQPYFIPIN
Put plainly: FACS, cells expressing human CTLA4, assay pH 6.0, MFI; lot 6978 in Tris buffer, T0; unit from the axis Log[ng/mL]. The procedure:
(§1) The amount of bound antibodies was quantified using anti-human IgG antibody conjugated to fluorophores. The MFI in each reaction was proportional to the amount of antibodies bound. The EC₅₀ value (in ng/mL) for binding to human CTLA4 on cells was determined by MFI of the singlets population against antibody concentration with a Prism variable slope of four-parameter dose-response curve, which was calculated using the nonlinear fit (variable slope, four parameters) model built into GraphPad Prism software (version 7.03).
On the technique in general: In flow cytometry, cells or beads pass a laser one at a time.

The target in assay [2] is T1, human CTLA4 expressed on the cell …. The assay can be described thus: FACS, cells expressing human CTLA4, assay pH 6.0, MFI; lot 6978 in Tris buffer, T2W; unit from the axis Log[ng/mL]. The procedure:
as §1

The target in assay [3] is T2, recombinant human CTLA4 extracellular domain (human, UniProt P16410 36-161).
T2 construct: extracellular domain; also called huCTLA-4
T2 sequence (looked up): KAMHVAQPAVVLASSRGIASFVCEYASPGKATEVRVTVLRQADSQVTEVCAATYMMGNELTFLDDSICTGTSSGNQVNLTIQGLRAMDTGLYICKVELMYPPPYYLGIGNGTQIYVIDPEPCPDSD
The assay can be described thus: ELISA, wells coated with human CTLA4, assay pH 7.4; lot 6978 in His buffer, T2W; curve still rising at log 3 (OD450 below 0.2), no plateau; unit from the axis Log[ng/mL]. The procedure:
(§2) Both ELISA and FACS analysis were used to measure the binding activity. […] The amount of bound antibodies was quantified using anti-human IgG antibody conjugated to HRP. The absorbance at 450 nm in each measurement was proportional to the amount of antibodies bound. […] EC50 value (in ng/mL) for binding to human CTLA4 was determined by absorbance at 450 nm against antibody concentration with Prism variable slope of four-parameter dose-response curve, which was calculated using the nonlinear fit (variable slope, four parameters) model built into GraphPad Prism software (version 7.03). The buffers tested included His buffer (His), Tris buffer (Tris), Glutamine buffer (Glu) and no buffer.

In assay [4] the target is T2, recombinant human CTLA4 extracellular …. The assay can be described thus: ELISA, immobilised huCTLA-4, table head pH 7.0 (text: pH 7.4), Jun. 29, 2017. A general note: ELISA stands for enzyme-linked immunosorbent assay.
For assay [5] the target is unchanged. The assay can be described thus: ELISA, wells coated with human CTLA4, assay pH 7.4; lot 6972 in His buffer, T2W; unit from the axis Log[ng/mL]. The protocol:
as §2

Assay [6] has the same target. The assay can be described thus: ELISA, wells coated with human CTLA4, assay pH 6.0; lot 6972 in Tris buffer, T2W; unit from the axis Log[ng/mL]. The protocol: as §2
The target of assay [7] is T1, human CTLA4 expressed on the cell …. Put plainly: FACS, cells expressing human CTLA4, assay pH 7.4, MFI; lot 6972 in Glu buffer, T2W; unit from the axis Log[ng/mL]. The procedure: as §1
Assay [8] shares this target. Put plainly: FACS, cells expressing human CTLA4, assay pH 7.4, MFI; lot 6972 in Tris buffer, T2W; unit from the axis Log[ng/mL]. The procedure:
as §1

Assay [9] shares this target. The assay can be described thus: FACS, CHO cells expressing human CTLA4 (CHO-huCTLA-4), pH 7.4, MFI; no unit in the table, unit from the axis Log Antibodies [ng/ml]. The protocol:
(§3) The amount of antibodies bound on the cells was quantified using anti-human IgG antibody conjugated to fluorophores. EC₅₀ values at pH 6.0 and 7.4 for binding to cells were calculated using the nonlinear fit (variable slope, four parameters) model built into GraphPad Prism software (version 7.03). The expression levels of human CTLA4 or cynomolgus CTLA4 on the surface of the CHO cells were determined using a BD QuantiBRITE™ PE kit.
(§4) At least two independent duplicate FACS experiments were performed for each antibody using each of the cell lines. The binding activities at different concentrations of the antibodies are plotted in these figures.

Assay [10] addresses T2, recombinant human CTLA4 extracellular …. The assay can be described thus: ELISA, wells coated with human CTLA4, assay pH 6.0; lot 6972 without test buffer; same column repeated in FIG. 9B and FIG. 9C; unit from the axis Log[ng/mL]. The protocol:
as §2

In assay [11] the target is T1, human CTLA4 expressed on the cell …. Put plainly: FACS, cells expressing human CTLA4, assay pH 6.0, MFI; lot 6972 control without test buffer; same column repeated in FIG. 10B and FIG. 10C; unit from the axis Log[ng/mL]. The procedure: as §1
Assay [12] deals with T3, cynomolgus CTLA4 expressed on the cell surface of CHO cells (cynomolgus, UniProt G7PL88 36-223).
T3 construct: whole, on cells; also called CHO-cynoCTLA4
T3 sequence: T1 sequence (looked up) with S14N, I18T, L106M
The assay can be described thus: FACS, CHO cells expressing cynomolgus CTLA4 (CHO-cynoCTLA-4), pH 7.4, MFI; curve still rising at log 5 (about 600000 against about 1900000 for Ipilimumab), no plateau; no unit in the table, unit from the axis Log Antibodies [ng/ml]. The procedure:
as §3, §4

B1: BA-087-08-32 (antibody, V domains shown)
VH: EVQLVQSGAEVKKPGATVKISCKVSGFTFSHYTMHWIRQSPSRGLEWLGFISYDGNYKYYADSVKGRFTISRDNAKNSLYLQMNSLRAEDTAVYYCARTGWLGPFDYWGQGTLVTVSS
VL: EIVMTQSPATLSVSPGERATLSCRASQSVGSSYLAWYQQKPGKAPKLLIYGAFSRATGVPSRFSGSGSGTDFTLTISSLQPEDFATYYCQQDGSSPWTFGQGTKVEIK
notes: Detected with anti-human IgG and a molecular weight of 146 kDa was used in SPR, so it was tested as a whole IgG; also called BA-087-08-032; BA-087-08-32 (# 6978)
In general, EC50 refers to the concentration at which the effect is half-maximal. As to B1, the figures for the EC50 in [1], in assay [2] and in [3] were 0.152 µg/mL, about 0.152 µg/mL and 1.07 µg/mL, respectively.

B2: BA-087-05-19 (antibody, V domains shown)
VH: EVQLVESGGGLVQPGGSLRLSCAASGFTFSHYTMHWVRQAPGKGLEWVSFISYDGNNKYYADSVKGRFTISRDNSKNTLYLQMNSLRAEDTAVYYCARTGWLGPFDYWGQGTLVTVSS
VL: AIQLTQSPSSLSASVGDRVTITCRASQYVGSSYLAWYLQKPGQSPQLLIYGAFSRATGIPARFSGSGSGTEFTLTISSLQSEDFAVYYCQQDGSSPWTFGQGTKVEIK
notes: Detected with anti-human IgG and a molecular weight of 146 kDa was used in SPR, so it was tested as a whole IgG; also called BA-087-05-019; BA-087-05-19 (# 6972)
Take B2: the EC50 in [4] came to 0.0934 µg/mL; in assay [5] it was 0.0758 µg/mL; in [6] it was 0.0101 µg/mL; in assay [7] it was 0.607 µg/mL; in assay [8], 0.537 µg/mL; in assay [9], 0.438 µg/mL. In addition, the EC50 in assay [10] is 0.00626 µg/mL; in assay [11], 0.223 µg/mL; in assay [12], 8.28 µg/mL.
